By Kd is commonly meant a measure of binding affinity in units of concentration. High values mean a looser complex, low ones a tighter complex.

This is an account of results in patent US20200095340A1.

Residue numbers refer to the chain shown, from its start. Names and notes keep the numbering of the source.

To fix the notation:
B1: anti-DLL3 trispecific protein, DLL3 binder 1A011 (protein, part only; not given: anti-CD3 fragment and anti-albumin domain, part only)
chain, part: EVQLVESGGGLVQPGGSLTLSCVASGSTSSINAIGWYRRAPGKQRELVAGISSDGSKVYIDSVKGRFTISRDNAKNSVYLQMNSLRAEDTAVYYCYYFRTVSGSSYRYWGQGTLVTVSSGGGGSGGGSGGGGSGGGSHHHHHH
B2: anti-DLL3 trispecific protein, DLL3 binder 1H012 (protein, part only; not given: CD3 binder and albumin binder, part only)
chain, part: B1 chain, part with I34M, I60V, Y106M, R107P
B3: anti-DLL3 trispecific protein, DLL3 binder 2H02 (protein, part only; not given: anti-CD3 fragment and anti-albumin domain, part only)
chain, part: B1 chain, part with I34M, G35A, V48A, I60A, R99H, Y106M
B4: anti-DLL3 trispecific protein, DLL3 binder 2E05 (protein, part only; not given: CD3 binder and albumin binder, part only)
chain, part: B1 chain, part with T28P, I34Y, I60S, Y106M, R107S
B5: anti-DLL3 trispecific protein, DLL3 binder 4H011 (protein, part only; not given: CD3 fragment and albumin sdAb, part only)
chain, part: EVQLVESGGGLVQPGGSLTLSCAASGSSVSRLSMAWYRQAPGKKRELVAGISVDGSTDYIDSVKGRFTISRDNAKNSVYLQMNSLRAEDTAVYYCYAYRWTTRLTYWGQGTLVTVSSGGGGSGGGSGGGGSGGGSHHHHHH
B6: anti-DLL3 trispecific protein, DLL3 binder 4D09 (protein, part only; not given: anti-CD3 fragment and anti-albumin domain, part only)
chain, part: B5 chain, part with S30K, R31F, V53A, D61L, R99E, L104Y
B7: anti-DLL3 trispecific protein, DLL3 binder 3C04 (protein, part only; not given: CD3 binder and albumin binder, part only)
chain, part: B5 chain, part with S28H, R31F, V53A, S56P, T101D, L104Y
B8: anti-DLL3 trispecific protein containing 2E05-M106Q (protein, part only; not given: CD3 binder and albumin binder, part only)
chain, part: B1 chain, part with T28P, I34Y, I60S, Y106Q, R107S
B9: anti-DLL3 trispecific protein containing 1H012 (protein, part only; not given: anti-CD3 fragment and anti-albumin sdAb, part only)
chain, part: B1 chain, part with I34M, I60V, Y106M, R107P
B10: anti-DLL3 trispecific protein containing 4D09-M34L (protein, part only; not given: anti-CD3 fragment and anti-albumin sdAb, part only)
chain, part: B5 chain, part with S30K, R31F, M34L, V53A, D61L, R99E, L104Y
B11: anti-DLL3 trispecific protein containing 4H011 (protein, part only; not given: CD3 binder and albumin binder, part only)
chain, part: B5 chain, part
B12: anti-DLL3 trispecific protein containing 4H05 (protein, part only; not given: CD3 binder and albumin binder, part only)
chain, part: B5 chain, part with V53A, D54R, L104S
B13: anti-DLL3 trispecific protein containing 4A010 (protein, part only; not given: anti-CD3 and anti-albumin domains, part only)
chain, part: B5 chain, part with S30R, R31F, V53A, D58V, L104Y, T105K

Sequence of cynomolgus DLL3 protein (cynomolgus) (chain, as listed by the source): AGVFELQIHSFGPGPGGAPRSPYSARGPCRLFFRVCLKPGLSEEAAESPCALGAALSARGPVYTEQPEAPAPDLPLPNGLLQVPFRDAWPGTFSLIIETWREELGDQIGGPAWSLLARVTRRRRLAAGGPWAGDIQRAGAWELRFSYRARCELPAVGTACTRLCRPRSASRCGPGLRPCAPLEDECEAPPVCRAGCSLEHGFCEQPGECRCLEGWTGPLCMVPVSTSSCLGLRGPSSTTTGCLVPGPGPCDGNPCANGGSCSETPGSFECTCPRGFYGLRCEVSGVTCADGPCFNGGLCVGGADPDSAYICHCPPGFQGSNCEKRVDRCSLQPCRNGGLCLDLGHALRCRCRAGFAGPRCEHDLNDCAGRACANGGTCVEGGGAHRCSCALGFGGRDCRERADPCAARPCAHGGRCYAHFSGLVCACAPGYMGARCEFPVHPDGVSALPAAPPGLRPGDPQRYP
Sequence of human DLL3 on DLL3 expressing cancer cell lines (human) (Q9NYJ7 27-618 limits assumed): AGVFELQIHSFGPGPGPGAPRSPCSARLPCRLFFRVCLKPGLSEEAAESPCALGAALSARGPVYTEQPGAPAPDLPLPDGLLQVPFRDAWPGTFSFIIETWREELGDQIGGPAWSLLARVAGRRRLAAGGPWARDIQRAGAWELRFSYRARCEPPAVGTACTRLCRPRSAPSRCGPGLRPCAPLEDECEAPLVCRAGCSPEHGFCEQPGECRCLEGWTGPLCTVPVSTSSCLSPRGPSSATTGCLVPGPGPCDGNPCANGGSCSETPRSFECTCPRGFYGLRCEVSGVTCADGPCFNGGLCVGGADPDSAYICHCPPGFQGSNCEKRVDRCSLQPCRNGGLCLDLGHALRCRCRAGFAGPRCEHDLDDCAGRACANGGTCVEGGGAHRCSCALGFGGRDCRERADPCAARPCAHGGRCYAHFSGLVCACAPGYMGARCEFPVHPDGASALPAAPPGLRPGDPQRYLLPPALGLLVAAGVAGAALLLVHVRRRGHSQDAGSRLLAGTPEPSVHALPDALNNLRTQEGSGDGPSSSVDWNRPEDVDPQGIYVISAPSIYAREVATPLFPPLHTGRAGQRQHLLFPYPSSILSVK

The target in one assay is human DLL3 on DMS-153 cells (human) (UniProt Q9NYJ7). Description: cell-based or functional assay.
Sequence of human DLL3 on DMS-153 cells (human) (Q9NYJ7 27-618 limits assumed): as above
As for B1, the DMS-153 TDCC EC50 (conditioned medium, human T cells) was found to be 0.051 nM and the TDCC EC50 (CHO expressed, purified protein; method of Example 2, DMS-153 cells) was 0.17 nM.
With B2, the DMS-153 TDCC EC50 (conditioned medium, human T cells) turned out to be 0.028 nM and the TDCC EC50 (CHO expressed, purified protein; method of Example 2, DMS-153 cells) worked out at 0.063 nM.
Regarding B3, the DMS-153 TDCC EC50 (conditioned medium, human T cells) is 0.031 nM and the TDCC EC50 (CHO expressed, purified protein; method of Example 2, DMS-153 cells) was determined as 0.096 nM.
In the same order, the values of B4 are 0.033 nM and 0.072 nM.
B5 registered a DMS-153 TDCC EC50 (conditioned medium, human T cells) of 0.036 nM.
As to B6, the DMS-153 TDCC EC50 (conditioned medium, human T cells) was found to be 0.052 nM and the TDCC EC50 (CHO expressed, purified protein; method of Example 2, DMS-153 cells) is 0.06 nM.
In turn, B7 came in with a DMS-153 TDCC EC50 (conditioned medium, human T cells) of 0.052 nM.

Another assay addresses human DLL3 on DLL3 expressing cancer cell lines (human) (UniProt Q9NYJ7). As to the kind of experiment: cell-based or functional assay.
In the case of B8, the TDCC EC50, DMS-153 cells, purified CHO protein is 41 nM and the fold more potent in TDCC than DH43 is 6.6 fold.
On to B9, for which the TDCC EC50, DMS-153 cells was found to be 28 nM and the fold increase in TDCC potency over DH43 was more than 7 fold.
B10: the TDCC EC50, DMS-153 cells, purified CHO protein is 54 nM and the fold more potent in TDCC than DH6 is 4.4 fold.
In turn, B11 gave a TDCC EC50, DMS-153 cells of 36 nM and a fold increase in TDCC potency over DH6 of more than 8 fold.

The target of the next assay is biotinylated version of human DLL3 protein expressed as a human IgG1 fusion protein (human) (UniProt Q9NYJ7). Description: Octet BLI, biotinylated DLL3-IgG1 on streptavidin tips, single 50 nM.
Sequence of biotinylated version of human DLL3 protein expressed as a human IgG1 fusion protein (human) (Q9NYJ7 27-492 limits assumed): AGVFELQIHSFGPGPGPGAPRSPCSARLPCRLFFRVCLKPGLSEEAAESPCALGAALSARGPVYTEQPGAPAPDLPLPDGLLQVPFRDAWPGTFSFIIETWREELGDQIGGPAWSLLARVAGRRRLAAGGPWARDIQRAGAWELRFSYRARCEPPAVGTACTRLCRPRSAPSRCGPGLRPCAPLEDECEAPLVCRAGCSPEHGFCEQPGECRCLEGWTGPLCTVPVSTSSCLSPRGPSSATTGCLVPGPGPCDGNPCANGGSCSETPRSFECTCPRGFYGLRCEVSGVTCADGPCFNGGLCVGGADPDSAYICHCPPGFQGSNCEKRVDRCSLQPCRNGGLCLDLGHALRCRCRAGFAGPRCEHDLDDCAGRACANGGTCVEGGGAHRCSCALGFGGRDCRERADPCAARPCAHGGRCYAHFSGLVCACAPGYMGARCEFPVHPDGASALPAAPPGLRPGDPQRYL
B12 gave a Kd of 64 nM.
Molecule B13 displayed a Kd of 2.3 nM.

Another assay has as its target cynomolgus DLL3 protein (cynomolgus). Description: Octet, single concentration of trispecific (60 nM), cynomolgus DLL3.
For B1, the Kd is 3.6 nM.
On the same count and under the same terms, the figure for B2 is 4.3 nM.
The same measure, in the same setting: the figure for B3 is 5.2 nM; for B4 it is 4.8 nM; for B5 it is 5.7 nM.
Still for that read-out and setting: the figure for B6 is 8.2 nM.
B7 registered an equilibrium dissociation constant (Kd) of 5.7 nM.

The target of a further assay is biotinylated human DLL3 protein expressed as a human IgG1 fusion protein (human) (UniProt Q9NYJ7). As to the kind of experiment: Octet, several concentrations of trispecific (60, 20, 6.67, 2.22 nM), human DLL3.
Sequence of biotinylated human DLL3 protein expressed as a human IgG1 fusion protein (human) (Q9NYJ7 27-492): as the sequence (Q9NYJ7 27-492 limits assumed) above
B1 registered a Kd of 3.5 nM.
The same measure, in the same setting: the figure for B2 is 2.9 nM; for B3 it is 4.4 nM.
Same read-out and setting: the figure for B4 is 3.5 nM; for B5 it is 3.9 nM.
On the same count and under the same terms, the figure for B6 is 8.1 nM; for B7 it is 4 nM.
